{"source": "patent US12171828B2", "about": "“Quil A fraction with low toxicity and use thereof” (Novavax AB, priority 2003, dated 2024)", "molecules": {"B1": {"name": "OVA alone: ovalbumin, weak model antigen, given without adjuvant (protein, UniProt P01012 2-386, looked up)", "Ovalbumin": "GSIGAASMEFCFDVFKELKVHHANENIFYCPIAIMSALAMVYLGAKDSTRTQINKVVRFDKLPGFGDSIEAQCGTSVNVHSSLRDILNQITKPNDVYSFSLASRLYAEERYPILPEYLQCVKELYRGGLEPINFQTAADQARELINSWVESQTNGIIRNVLQPSSVDSQTAMVLVNAIVFKGLWEKAFKDEDTQAMPFRVTEQESKPVQMMYQIGLFRVASMASEKMKILELPFASGTMSMLVLLPDEVSGLEQLESIINFEKLTEWTSSNVMEERKIKVYLPRMKMEEKYNLTSVLMAMGITDVFSSSANLSGISSAESLKISQAVHAAHAEINEAGREVVGSAEAGVDAASVSEEFRADHPFLFCIKHIATNAVLFFGRCVSP"}}, "test_system": "OVA", "assay": "OVA-specific serum antibody ELISA, QWT-iscoms with CT or MPL (Example 7)", "format": "in vivo, NMRI mice", "settings": "5 μg OVA without adjuvant", "protocol": "Sera were collected 3 weeks after priming and 2 weeks after the booster injection.\nSerum antibody determination, including total IgG, and subclasses IgG1 and IgG2a, was carried in out in ELISA as described in example 1."}
{"molecule": "B1", "values": [{"measurement": "serum IgG after booster", "value": "low serum levels of IgG"}]}
